In data set [1] the target is T1, HAT-HA-SpoVG (Staphylococcus epidermidis 1457, UniProt Q8CML1 1-102).
T1 sequence: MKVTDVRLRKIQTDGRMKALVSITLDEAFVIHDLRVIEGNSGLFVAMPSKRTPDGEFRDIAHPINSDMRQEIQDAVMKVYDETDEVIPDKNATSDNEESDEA
Description: EMSA; 12 uM SpoVG, 2 mM Mg2+; 20 mM HEPES pH 8.0, 10 mM KCl, 2 mM MgCl2, 0.1 mM EDTA, 0.1 mM DTT, 50 ug/mL BSA, 10% glycerol; 200 fmol probe in 20 uL; 30 min room temperature; 2.5% agarose gel in cold TAE. Conditions: protein: recombinant; tags: N-terminal HAT-HA-linker; label: DYE682; blunt. (A gel shift assay detects complexes by their altered migration in electrophoresis.)

Data set [2] deals with T1, HAT-HA-SpoVG. Description: EMSA; 2-12 uM SpoVG, 2 mM Mg2+; 20 mM HEPES pH 8.0, 10 mM KCl, 2 mM MgCl2, 0.1 mM EDTA, 0.1 mM DTT, 50 ug/mL BSA, 10% glycerol; 200 fmol probe in 20 uL; 30 min room temperature; 2.5% agarose gel in cold TAE. To be noted: protein: recombinant; tags: N-terminal HAT-HA-linker; label: DYE682; blunt.
For data set [3], the target named is T1, HAT-HA-SpoVG. Description: competition EMSA; 10x or 20x excess over labeled icaA probe; 20 mM HEPES pH 8.0, 10 mM KCl, 2 mM MgCl2, 0.1 mM EDTA, 0.1 mM DTT, 50 ug/mL BSA, 10% glycerol; 200 fmol probe in 20 uL; 30 min room temperature; 2.5% agarose gel in cold TAE. Conditions: protein: recombinant; tags: N-terminal HAT-HA-linker; blunt.

B1: secA p control probe (dsDNA)
DNA 1: AGTATAATTTTCTAACTATAAATGATAAGATATATTGTTGTAGGCCAAACAGTTTTTTAGCTAAAGGAGCGAACGAAATG
DNA 2: CATTTCGTTCGCTCCTTTAGCTAAAAAACTGTTTGGCCTACAACAATATATCTTATCATTTATAGTTAGAAAATTATACT
For the molecule B1, the binding result with HAT-HA-SpoVG [1] is “no binding”.

B2: icaA probe (dsDNA)
DNA 1: TAACAACATTCTATTGCAAATTGAAATACTTTCGATTAGCATATGCTTTACAACCTAACTAACGAAAGGTAGGTGAAAAA
DNA 2: TTTTTCACCTACCTTTCGTTAGTTAGGTTGTAAAGCATATGCTAATCGAAAGTATTTCAATTTGCAATAGAATGTTGTTA
In the case of B2, the binding result with HAT-HA-SpoVG [2] was “binds”.

B3: unlabeled icaA probe (dsDNA)
DNA 1: B2 DNA 1
DNA 2: B2 DNA 2
In the case of B3, the binding result in the data set with HAT-HA-SpoVG [3] is reported as “binds”.
